Assay results: patent publication US20200317768A1 (published 2020)
Substitutions are numbered along the chain they refer to.

How the values were obtained:
Experiment in all cases: SPR (BIACORE); KD of SG1 / KD of variant;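 further: relative to parent M103205H795-SG1 carrying the SG1 human heavy chain constant region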
[1] = target: T1, cynomolgus monkey FcγRIIa1 extracellular domain with C-terminal His-tag (cynomolgus monkey)
T1 construct: also called cyno FcgRIIa1; cynoFcγRIIa1
T1 chain: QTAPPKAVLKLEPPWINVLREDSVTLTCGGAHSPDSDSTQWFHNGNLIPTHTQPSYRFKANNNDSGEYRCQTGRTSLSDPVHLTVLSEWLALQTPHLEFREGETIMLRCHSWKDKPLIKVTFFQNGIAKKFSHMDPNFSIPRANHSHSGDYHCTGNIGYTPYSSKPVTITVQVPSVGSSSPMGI
Experimental: (§1) The kinetic analysis of interactions between these antibodies and FcγR was carried out using BIACORE® T200 or BIACORE® 4000 (GE Healthcare). HBS-EP+ (GE Healthcare) was used as the running buffer, and the measurement temperature was set to 25° C. A chip produced by immobilizing Protein A. Protein A/G or mouse anti-human IgG kappa light chain (BD Biosciences) onto a Series S Sensor Chip CM4 or CM5 (GE Healthcare) by the amine-coupling method was used. […] After the measurement, the antibody captured on the chip was washed off by allowing reaction with 10 mM glycine-HCl, pH1.5 and 25 mM NaOH so that the chip was regenerated and used repeatedly. The sensorgrams obtained as measurement results were analyzed by the 1:1 Langmuir binding model using the BIACORE® Evaluation Software to calculate the binding rate constant ka (L/mol/s) and dissociation rate constant kd (l/s), and the dissociation constant KD (mol/L) was calculated from these values. […] Regarding such interactions, KD values were calculated using the following 1:1 binding model described in BIACORE® T100 Software Handbook BR1006-48 Edition AE.
(§2) The behavior of interacting molecules according to the 1:1 binding model on BIACORE® can be described by Equation 1: Req=C·R max/(KD+C)+RI, wherein, Req is a plot of steady-state binding levels to analyte concentration. C is concentration, RI is bulk refractive index contribution in the sample, and Rmax is analyte binding capacity of the surface. When this equation is rearranged, KD can be expressed as Equation 2: KD=C·Rmax/(Req−RI)−C. KD can be calculated by substituting the values of Rmax, RI, and C into Equation 1 or Equation 2. From the current measurement conditions, RI=0, C=2 μmol/L can be used.

[2] = target: T2, cynomolgus monkey FcγRIIa2 extracellular domain with C-terminal His-tag (cynomolgus monkey)
T2 construct: also called cyno FcgRIIa2; cynoFcγRIIa2
T2 chain: T1 chain with P95T, T121A, I127K, A128S, K130N, D135N, R142Q
Experimental: as §1, §2

[3] = target: T3, cynomolgus monkey FcγRIIa3 extracellular domain with C-terminal His-tag (cynomolgus monkey)
T3 construct: also called cyno FcgRIIa3; cynoFcγRIIa3
T3 chain: T1 chain with P95T, T121A, A128S, H133P, D135N
Experimental: as §1, §2

[4] = target: T4, cynomolgus monkey FcγRIIb extracellular domain with C-terminal His-tag (cynomolgus monkey)
T4 construct: also called cyno FcgRIIb; cynoFcγRIIb
T4 chain: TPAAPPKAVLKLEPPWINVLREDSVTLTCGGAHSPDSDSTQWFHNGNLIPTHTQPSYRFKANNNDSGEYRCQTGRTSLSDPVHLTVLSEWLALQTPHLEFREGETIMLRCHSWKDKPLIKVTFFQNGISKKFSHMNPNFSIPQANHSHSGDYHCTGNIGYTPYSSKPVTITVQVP
Experimental: as §1, §2

[5] = target: T5, human FcγRIIaH extracellular domain with C-terminal His-tag (human, UniProt P12318 34-217)
T5 construct: also called human FcgRIIaH; FcγRIIa (type H)
T5 sequence: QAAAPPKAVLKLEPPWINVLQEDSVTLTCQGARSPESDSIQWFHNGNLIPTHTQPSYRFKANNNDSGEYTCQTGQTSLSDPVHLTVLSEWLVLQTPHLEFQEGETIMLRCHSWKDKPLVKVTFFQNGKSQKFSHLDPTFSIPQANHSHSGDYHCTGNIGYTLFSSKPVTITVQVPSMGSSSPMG
Experimental: as §1, §2

[6] = target: T6, human FcγRIIaR extracellular domain with C-terminal His-tag (human, UniProt P12318 34-217)
T6 construct: also called human FcgRIIaR; FcγRIIa (type R)
T6 chain: T5 sequence with H134R
Experimental: as §1, §2

Measured: KD fold (SG1 = 1)

B1: MS_M103205H795-SG1/M103202L889-SK1 (antibody, human IgG1, kappa)
heavy: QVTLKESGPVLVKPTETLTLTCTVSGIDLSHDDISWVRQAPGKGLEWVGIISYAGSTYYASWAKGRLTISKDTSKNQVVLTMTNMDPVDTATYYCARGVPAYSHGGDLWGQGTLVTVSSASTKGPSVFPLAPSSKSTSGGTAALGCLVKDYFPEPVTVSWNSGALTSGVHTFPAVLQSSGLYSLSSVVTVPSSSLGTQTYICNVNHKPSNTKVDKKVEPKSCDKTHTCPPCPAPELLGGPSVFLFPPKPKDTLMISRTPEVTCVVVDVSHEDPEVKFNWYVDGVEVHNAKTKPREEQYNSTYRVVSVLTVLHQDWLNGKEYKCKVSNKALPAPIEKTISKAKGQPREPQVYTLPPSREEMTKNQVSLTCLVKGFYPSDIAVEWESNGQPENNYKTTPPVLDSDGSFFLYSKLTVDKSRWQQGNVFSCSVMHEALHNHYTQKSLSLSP
light: DIVMTQSPATLSLSPGERATLSCTSSQSVYHANWLSWFQQKPGQPPKLLIYWASTLAYGVPSRFSGSGSGTDFTLTISSLQPEDAATYYCAGGYGGGRYAFGQGTKVEIKRTVAAPSVFIFPPSDEQLKSGTASVVCLLNNFYPREAKVQWKVDNALQSGNSQESVTEQDSKDSTYSLSSTLTLSKADYEKHKVYACEVTHQGLSSPVTKSFNRGEC
notes: Parent antibody of the Fc variants; also called MS1032LO06-SG1
1 fold: [1] | [2] | [3] | [4] | [5] | [6]
